Test results published in US20240141045A1 (PRECIGEN, published 2024).

What was measured:
[1] = molecular target: T1, TGF-β1 (UniProt P01137 279-390); experiment: cell-based or functional assay
[2] = molecular target: T2, PD-1 Fc fusion protein (UniProt Q15116 25-167, limits assumed); experiment: SPR (Biacore), PD1-Fc immobilised on CM5, 1:1 Langmuir model with mass transfer
T2 construct: Antigen immobilised on the CM5 chip in all PD-1 SPR assays; also called PD-1 fused to human Fc region; PD-1-Fc antigen; not shown: human Fc region
Method: PD1-Fc antigen and reference antigen was immobilized on Biacore CM5 surface. […] Kinetics data was evaluated for 1:1 model: Langmuir with mass transfer.

[3] = molecular target: T2, PD-1 Fc fusion protein; experiment: SPR (Biacore 3000), PD-1 Fc immobilised on CM5 chip, fusion protein injected
Method: Surface plasma resonance (SPR) analysis was performed using Biacore3000, CM5 chip, an amine-coupling kit, 10×HBS-P running buffer and Glycine for regeneration (GE Healthcare). […] Dissociation was allowed to proceed followed by a pulse of 10 mM Glycine (pH 1.5) for regeneration of the chip surface.

[4] = molecular target: T1, TGF-β1; experiment: cell-based or functional assay; remark: listed apart in the source

T1 sequence (P01137 279-390 limits assumed): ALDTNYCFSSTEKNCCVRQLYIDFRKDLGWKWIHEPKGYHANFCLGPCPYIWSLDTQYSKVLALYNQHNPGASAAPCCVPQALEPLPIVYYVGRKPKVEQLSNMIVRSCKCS
T2 sequence (Q15116 25-167 limits assumed): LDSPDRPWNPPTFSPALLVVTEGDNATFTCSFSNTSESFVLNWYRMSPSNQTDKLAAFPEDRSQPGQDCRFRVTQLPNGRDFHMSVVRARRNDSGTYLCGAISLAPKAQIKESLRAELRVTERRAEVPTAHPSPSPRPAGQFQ

Binder | IC50, TGF-β1 neutralization activity (HEK-Blue TGF-β reporter cells) [1] | Kd [2] | IC50, inhibition of TGF-β1 induced reporter gene activity (HEK-Blue TGF-β cells, SEAP) [4] | also measured
Anti-PD1 (VL5-VH6).IgG4-Linker7-TGFbRII (antibody) heavy: QVQLVESGGGVVQPGRSLRLDCKASGITFSNSGMHWVRQAPGKGLEWVAVIWYDGSKRYYADSVKGRFTISRDNSKNTLFLQMNSLRAEDTAVYYCATNDDYWGQGTLVTVSSASTKGPSVFPLAPCSRSTSESTAALGCLVKDYFPEPVTVSWNSGALTSGVHTFPAVLQSSGLYSLSSVVTVPSSSLGTKTYTCNVDHKPSNTKVDKRVESKYGPPCPSCPAPEFLGGPSVFLFPPKPKDTLMISRTPEVTCVVVDVSQEDPEVQFNWYVDGVEVHNAKTKPREEQFNSTYRVVSVLTVLHQDWLNGKEYKCKVSNKGLPSSIEKTISKAKGQPREPQVYTLPPSQEEMTKNQVSLTCLVKGFYPSDIAVEWESNGQPENNYKTTPPVLDSDGSFFLYSRLTVDKSRWQEGNVFSCSVMHEALHNHYTQKSLSLSPGKDPGSGSVPLGSGSNPGSIPPHVQKSVNNDMIVTDNNGAVKFPQLCKFCDVRFSTCDNQKSCMSNCSITSICEKPQEVCVAVWRKNDENITLETVCHDPKLPYHDFILEDAASPKCIMKEKKKPGETFFMCSCSSDECNDNIIFSEEYNTSNPD light: not shown | 0.0011 nM |  |  | 
Anti-PD1 (VL5-VH6).IgG4-Linker8-TGFbRII (antibody) heavy: QVQLVESGGGVVQPGRSLRLDCKASGITFSNSGMHWVRQAPGKGLEWVAVIWYDGSKRYYADSVKGRFTISRDNSKNTLFLQMNSLRAEDTAVYYCATNDDYWGQGTLVTVSSASTKGPSVFPLAPCSRSTSESTAALGCLVKDYFPEPVTVSWNSGALTSGVHTFPAVLQSSGLYSLSSVVTVPSSSLGTKTYTCNVDHKPSNTKVDKRVESKYGPPCPSCPAPEFLGGPSVFLFPPKPKDTLMISRTPEVTCVVVDVSQEDPEVQFNWYVDGVEVHNAKTKPREEQFNSTYRVVSVLTVLHQDWLNGKEYKCKVSNKGLPSSIEKTISKAKGQPREPQVYTLPPSQEEMTKNQVSLTCLVKGFYPSDIAVEWESNGQPENNYKTTPPVLDSDGSFFLYSRLTVDKSRWQEGNVFSCSVMHEALHNHYTQKSLSLSPGKDPGSGGSVPLGSGGSNPGSIPPHVQKSVNNDMIVTDNNGAVKFPQLCKFCDVRFSTCDNQKSCMSNCSITSICEKPQEVCVAVWRKNDENITLETVCHDPKLPYHDFILEDAASPKCIMKEKKKPGETFFMCSCSSDECNDNIIFSEEYNTSNPD light: not shown | 0.0012 nM |  |  | 
Anti-PD1(VH6-VL5) scFv-TGFβRII (scFv) chain 1: QVQLVESGGGVVQPGRSLRLDCKASGITFSNSGMHWVRQAPGKGLEWVAVIWYDGSKRYYADSVKGRFTISRDNSKNTLFLQMNSLRAEDTAVYYCATNDDYWGQGTLVTVSS chain 2: EIVLTQSPATLSLSPGERATLSCRASQSVSSYLAWYQQKPGQAPRLLIYDASNRATGIPARFSGSGSGTDFTLTISSLEPEDFAVYYCQQSSNWPRTFGQGTKVEIK chain 3: GGGGSGGGGSIPPHVQKSVNNDMIVTDNNGAVKFPQLCKFCDVRFSTCDNQKSCMSNCSITSICEKPQEVCVAVWRKNDENITLETVCHDPKLPYHDFILEDAASPKCIMKEKKKPGETFFMCSCSSDECNDNIIFSEEYNTSNPD |  |  |  | Kd [3]: 19.7 nM
Anti-PD1 (nVL1-nVH3).IgG4-TGFbRII (antibody) heavy: QVQLVESGGGVVQPGRSLRLDCKASGITFSNSGMHWVRQAPGKGLEWVAVIWYDGSKRYYADSVKGRFTISRDNSKNTLFLQMNSLRAEDTAVYYCATNNDYWGQGTLVTVSSASTKGPSVFPLAPCSRSTSESTAALGCLVKDYFPEPVTVSWNSGALTSGVHTFPAVLQSSGLYSLSSVVTVPSSSLGTKTYTCNVDHKPSNTKVDKRVESKYGPPCPSCPAPEFLGGPSVFLFPPKPKDTLMISRTPEVTCVVVDVSQEDPEVQFNWYVDGVEVHNAKTKPREEQFNSTYRVVSVLTVLHQDWLNGKEYKCKVSNKGLPSSIEKTISKAKGQPREPQVYTLPPSQEEMTKNQVSLTCLVKGFYPSDIAVEWESNGQPENNYKTTPPVLDSDGSFFLYSRLTVDKSRWQEGNVFSCSVMHEALHNHYTQKSLSLSPGKGGGGSGGGGSIPPHVQKSVNNDMIVTDNNGAVKFPQLCKFCDVRFSTCDNQKSCMSNCSITSICEKPQEVCVAVWRKNDENITLETVCHDPKLPYHDFILEDAASPKCIMKEKKKPGETFFMCSCSSDECNDNIIFSEEYNTSNPD light: not shown |  | 0.0277 nM | 0.0107 nM | 
Anti-PD1(VH7-VL6) scFv-TGFβRII (scFv) chain 1: QVQLVQSGVEVKKPGASVKVSCKASGYTFTNYYMYWVRQAPGQGLEWMGGINPSNGGTNFNEKFKNRVTLTTDSSTTTAYMELKSLQFDDTAVYYCARRDYRFDMGFDYWGQGTTVTVSS chain 2: EIVLTQSPATLSLSPGERATLSCRASKGVSTSGYSYLHWYQQKPGQAPRLLIYLASYLESGVPARFSGSGSGTDFTLTISSLEPEDFAVYYCQHSRDLPLTFGGGTKVEIK chain 3: GGGGSGGGGSIPPHVQKSVNNDMIVTDNNGAVKFPQLCKFCDVRFSTCDNQKSCMSNCSITSICEKPQEVCVAVWRKNDENITLETVCHDPKLPYHDFILEDAASPKCIMKEKKKPGETFFMCSCSSDECNDNIIFSEEYNTSNPD |  |  |  | Kd [3]: 7.77 nM
Anti-PD1 (VL5-VH6).IgG4-Linker10-TGFbRII (antibody) heavy: QVQLVESGGGVVQPGRSLRLDCKASGITFSNSGMHWVRQAPGKGLEWVAVIWYDGSKRYYADSVKGRFTISRDNSKNTLFLQMNSLRAEDTAVYYCATNDDYWGQGTLVTVSSASTKGPSVFPLAPCSRSTSESTAALGCLVKDYFPEPVTVSWNSGALTSGVHTFPAVLQSSGLYSLSSVVTVPSSSLGTKTYTCNVDHKPSNTKVDKRVESKYGPPCPSCPAPEFLGGPSVFLFPPKPKDTLMISRTPEVTCVVVDVSQEDPEVQFNWYVDGVEVHNAKTKPREEQFNSTYRVVSVLTVLHQDWLNGKEYKCKVSNKGLPSSIEKTISKAKGQPREPQVYTLPPSQEEMTKNQVSLTCLVKGFYPSDIAVEWESNGQPENNYKTTPPVLDSDGSFFLYSRLTVDKSRWQEGNVFSCSVMHEALHNHYTQKSLSLSPGKDPGVLEREDVPTTSYPNPGSIPPHVQKSVNNDMIVTDNNGAVKFPQLCKFCDVRFSTCDNQKSCMSNCSITSICEKPQEVCVAVWRKNDENITLETVCHDPKLPYHDFILEDAASPKCIMKEKKKPGETFFMCSCSSDECNDNIIFSEEYNTSNPD light: not shown | 0.0019 nM |  |  | 

The next lines start with results.

IC50, TGF-β1 neutralization activity (HEK-Blue TGF-β reporter cells) [1] | Kd [2] | IC50, inhibition of TGF-β1 induced reporter gene activity (HEK-Blue TGF-β cells, SEAP) [4] | Binder | also measured
 | 0.0148 nM |  | Anti-PD1 (nVL1-nVH3).IgG4 (antibody, V domains shown, IgG4) VH: QVQLVESGGGVVQPGRSLRLDCKASGITFSNSGMHWVRQAPGKGLEWVAVIWYDGSKRYYADSVKGRFTISRDNSKNTLFLQMNSLRAEDTAVYYCATNNDYWGQGTLVTVSS VL: EIVMTQSPATLSLSPGERATLSCRASQSVSSYLAWYQQKPGQAPRLLIYDASNRATGIPARFSGSGSGTDFTLTISSLEPEDFAVYYCQQYNNWPRTFGQGTKVEIK | 
 | 0.0141 nM |  | Anti-PD1 (nVL1-nVH3).IgG4 (S108P) (antibody, V domains shown) VH: QVQLVESGGGVVQPGRSLRLDCKASGITFSNSGMHWVRQAPGKGLEWVAVIWYDGSKRYYADSVKGRFTISRDNSKNTLFLQMNSLRAEDTAVYYCATNNDYWGQGTLVTVSS VL: EIVMTQSPATLSLSPGERATLSCRASQSVSSYLAWYQQKPGQAPRLLIYDASNRATGIPARFSGSGSGTDFTLTISSLEPEDFAVYYCQQYNNWPRTFGQGTKVEIK | 
 | 0.321 nM | 0.0545 nM | Anti-PD1 (nVL1-nVH8).IgG4-TGFbRII (antibody) heavy: EVQLVQSGGGVVQPGRSLRLSCAASGFTFSSYGMHWVRQAPGKGLEWVAVIWYDGSNKYYADSVKGRFTISRDNSKNTLYLQMNSLRAEDTAVYYCATNNDYWGQGTLVTVSSASTKGPSVFPLAPCSRSTSESTAALGCLVKDYFPEPVTVSWNSGALTSGVHTFPAVLQSSGLYSLSSVVTVPSSSLGTKTYTCNVDHKPSNTKVDKRVESKYGPPCPSCPAPEFLGGPSVFLFPPKPKDTLMISRTPEVTCVVVDVSQEDPEVQFNWYVDGVEVHNAKTKPREEQFNSTYRVVSVLTVLHQDWLNGKEYKCKVSNKGLPSSIEKTISKAKGQPREPQVYTLPPSQEEMTKNQVSLTCLVKGFYPSDIAVEWESNGQPENNYKTTPPVLDSDGSFFLYSRLTVDKSRWQEGNVFSCSVMHEALHNHYTQKSLSLSPGKGGGGSGGGGSIPPHVQKSVNNDMIVTDNNGAVKFPQLCKFCDVRFSTCDNQKSCMSNCSITSICEKPQEVCVAVWRKNDENITLETVCHDPKLPYHDFILEDAASPKCIMKEKKKPGETFFMCSCSSDECNDNIIFSEEYNTSNPD light: not shown | 
 | 0.147 nM | 0.0151 nM | Anti-PD1 (nVL1-nVH7).IgG4-TGFbRII (antibody) heavy: QVQLVESGGGVVQPGRSLRLDCKASGFTFSNSGMHWVRQAPGKGLEWVAVIWYDGSKRYYADSVKGRFTISRDNSKNTLFLQMNSLRAEDTAVYYCATNNDYWGQGTLVTVSSASTKGPSVFPLAPCSRSTSESTAALGCLVKDYFPEPVTVSWNSGALTSGVHTFPAVLQSSGLYSLSSVVTVPSSSLGTKTYTCNVDHKPSNTKVDKRVESKYGPPCPSCPAPEFLGGPSVFLFPPKPKDTLMISRTPEVTCVVVDVSQEDPEVQFNWYVDGVEVHNAKTKPREEQFNSTYRVVSVLTVLHQDWLNGKEYKCKVSNKGLPSSIEKTISKAKGQPREPQVYTLPPSQEEMTKNQVSLTCLVKGFYPSDIAVEWESNGQPENNYKTTPPVLDSDGSFFLYSRLTVDKSRWQEGNVFSCSVMHEALHNHYTQKSLSLSPGKGGGGSGGGGSIPPHVQKSVNNDMIVTDNNGAVKFPQLCKFCDVRFSTCDNQKSCMSNCSITSICEKPQEVCVAVWRKNDENITLETVCHDPKLPYHDFILEDAASPKCIMKEKKKPGETFFMCSCSSDECNDNIIFSEEYNTSNPD light: not shown | 
